{
  "source": "paper doi:10.1101/2020.12.24.423824",
  "about": "(bioRxiv, 2020)",
  "binders": {"B1": {"name": "GFP10-CLN3 (natural protein, UniProt Q13286 1-438, looked up)", "chain": "MGGCAGSRRRFSDSEGEETVPEPRLPLLDHQGAHWKNAVGFWLLGLCNNFSYVVMLSAAHDILSHKRTSGNQSHVDPGPTPIPHNSSSRFDCNSVSTAAVLLADILPTLVIKLLAPLGLHLLPYSPRVLVSGICAAGSFVLVAFSHSVGTSLCGVVFASISSGLGEVTFLSLTAFYPRAVISWWSSGTGGAGLLGALSYLGLTQAGLSPQQTLLSMLGIPALLLASYFLLLTSPEAQDPGGEEEAESAARQPLIRTEAPESKPGSSSSLSLRERWTVFKGLLWYIVPLVVVYFAEYFINQGLFELLFFWNTSLSHAQQYRWYQMLYQAGVFASRSSLRCCRIRFTWALALLQCLNLVFLLADVWFGFLPSIYLVFLIILYEGLLGGAAYVNTFHNIALETSDEHREFAMAATCISDTLGISLSGLLALPLHDFLCQLS"}, "B2": {"name": "RILP-GFP10 (natural protein, UniProt Q96NA2 1-401, looked up)", "chain": "MEPRRAAPGVPGWGSREAAGSASAAELVYHLAGALGTELQDLARRFGPEAAAGLVPLVVRALELLEQAAVGPAPDSLQVSAQPAEQELRRLREENERLRRELRAGPQEERALLRQLKEVTDRQRDELRAHNRDLRQRGQETEALQEQLQRLLLVNAELRHKLAAMQTQLRAAQDRERERQQPGEAATPQAKERARGQAGRPGHQHGQEPEWATAGAGAPGNPEDPAEAAQQLGRPSEAGQCRFSREEFEQILQERNELKAKVFLLKEELAYFQRELLTDHRVPGLLLEAMKVAVRKQRKKIKAKMLGTPEEAESSEDEAGPWILLSDDKGDHPPPPESKIQSFFGLWYRGKAESSEDETSSPAPSKLGGEEEAQPQSPAPDPPCSALHEHLCLGASAAPEA"}},
  "biological_target": "RlucII-Rab7A (UniProt P51149 1-207)",
  "sequence (P51149 whole entry)": "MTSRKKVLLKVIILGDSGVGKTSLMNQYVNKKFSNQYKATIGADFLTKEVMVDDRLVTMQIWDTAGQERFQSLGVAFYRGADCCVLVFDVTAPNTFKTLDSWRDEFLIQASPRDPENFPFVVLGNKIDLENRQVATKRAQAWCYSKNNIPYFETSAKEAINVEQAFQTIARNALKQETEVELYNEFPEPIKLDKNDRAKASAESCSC",
  "assay": "FRET or BRET",
  "data": [
    {"binder": "B1", "values": [
      {"measurement": "fold increase of BRET50 in CLN5KO cells against wild-type HeLa cells", "value": 2.85, "unit": "fold"}
    ]},
    {"binder": "B2", "values": [
      {"measurement": "fold increase of BRET50 in CLN5KO cells against wild-type HeLa cells", "value": 3, "unit": "fold"}
    ]}
  ]
}
